B1: WT His6-MutL, full length [E. coli] / WT MutS, full length [E. coli] (parent)
chain 1: MPIQVLPPQLANQIAAGEVVERPASVVKELVENSLDAGATRIDIDIERGGAKLIRIRDNGCGIKKDELALALARHATSKIASLDDLEAIISLGFRGEALASISSVSRLTLTSRTAEQQEAWQAYAEGRDMNVTVKPAAHPVGTTLEVLDLFYNTPARRKFLRTEKTEFNHIDEIIRRIALARFDVTINLSHNGKIVRQYRAVPEGGQKERRLGAICGTAFLEQALAIEWQHGDLTLRGWVADPNHTTPALAEIQYCYVNGRMMRDRLINHAIRQACEDKLGADQQPAFVLYLEIDPHQVDVNVHPAKHEVRFHQSRLVHDFIYQGVLSVLQQQLETPLPLDDEPQPAPRSIPENRVAAGRNHFAEPAAREPVAPRYTPAPASGSRPAAPWPNAQPGYQKQQGEVYRQLLQTPAPMQKLKAPEPQEPALAANSQSFGRVLTIVHSDCALLERDGNISLLSLPVAERWLRQAQLTPGEAPVCAQPLLIPLRLKVSAEEKSALEKAQSALAELGIDFQSDAQHVTIRAVPLPLRQQNLQILIPELIGYLAKQSVFEPGNIAQWIARNLMSEHAQWSMAQAITLLADVERLCPQLVKTPPGGLLQSVDLHPAIKALKDE
chain 2: MSAIENFDAHTPMMQQYLRLKAQHPEILLFYRMGDFYELFYDDAKRASQLLDISLTKRGASAGEPIPMAGIPYHAVENYLAKLVNQGESVAICEQIGDPATSKGPVERKVVRIVTPGTISDEALLQERQDNLLAAIWQDSKGFGYATLDISSGRFRLSEPADRETMAAELQRTNPAELLYAEDFAEMSLIEGRRGLRRRPLWEFEIDTARQQLNLQFGTRDLVGFGVENAPRGLCAAGCLLQYAKDTQRTTLPHIRSITMEREQDSIIMDAATRRNLEITQNLAGGAENTLASVLDCTVTPMGSRMLKRWLHMPVRDTRVLLERQQTIGALQDFTAGLQPVLRQVGDLERILARLALRTARPRDLARMRHAFQQLPELRAQLETVDSAPVQALREKMGEFAELRDLLERAIIDTPPVLVRDGGVIASGYNEELDEWRALADGATDYLERLEVRERERTGLDTLKVGFNAVHGYYIQISRGQSHLAPINYMRRQTLKNAERYIIPELKEYEDKVLTSKGKALALEKQLYEELFDLLLPHLEALQQSASALAELDVLVNLAERAYTLNYTCPTFIDKPGIRITEGRHPVVEQVLNEPFIANPLNLSPQRRMLIITGPNMGGKSTYMRQTALIALMAYIGSYVPAQKVEIGPIDRIFTRVGAADDLASGRSTFMVEMTETANILHNATEYSLVLMDEIGRGTSTYDGLSLAWACAENLANKIKALTLFATHYFELTQLPEKMEGVANVHLDALEHGDTIAFMHSVQDGAASKSYGLAVAALAGVPKEVIKRARQKLRELESISPNAAATQVDGTQMSLLSVPEETSPAVEALENLDPDSLTPRQALEWIYRLKSLV

Variants of: B1
Experiment: SPR
Details: with WT MutS, MutS sliding clamps pre-formed on 100-bp end-blocked DNA in the presence of ATP, value read at the highest MutL concentration (last point, est. about 5,000 …), read off a plot

response | Variant
-7% | chain 1 R55D R57D
11% | chain 1 A138E
13% | chain 1 K52C
3% | chain 1 A138E H139A
-1% | chain 1 R55D R57D A138E H139A

Same assay, conditions: with WT His6-MutL, MutS sliding clamps pre-formed on 100-bp end-blocked DNA in the presence of ATP, value read at the highest MutL concentration (last point, est. about 5,000 …), read off a plot

response | Variant
8% | chain 2 P595A I597A M759D
